Assays:
keratin of human hair [1] = experiment: quantitative hair binding test: human hair incubated with His-tagged comparison protein, detection with anti-polyhistidine peroxidase conjugate and TMB, absorption at 405 nm
keratin of human hair [2] = experiment: quantitative hair binding test: human hair incubated with renatured His-tagged KBD-B, detection with anti-polyhistidine peroxidase conjugate and TMB, absorption at 405 nm
keratin of human hair [3] = experiment: quantitative hair binding test with the denatured (not renatured) protein: human hair, detection with anti-polyhistidine peroxidase conjugate and TMB, absorption at 405 nm

Row | Molecule | A405 nm (keratin of human hair [1]) | A405 nm (keratin of human hair [2]) | A405 nm (keratin of human hair [3])
1 | YaaD from B. subtilis (comparison protein, with His tag) (from UniProt P37527) | 0.088 | – | –
2 | KBD-B (keratin-binding domain B of human desmoplakin), expressed by the vector pQE30-KBD-B in E. coli (protein) MRGSHHHHHHGSACELEPHTGLLLLSVQKRSMSFQGIRQPVTVTELVDSGILRPSTVNELESGQISYDEVGERIKDFLQGSSCIAGIYNETTKQKLGIYEAMKIGLVRPGTALELLEAQAATGFIVDPVSNLRLPVEEAYKRGLVGIEFKEKLLSAERAVTGYNDPETGNIISLFQAMNKELIEKGHGIRLLEAQIATGGIIDPKESHRLPVDIAYKRGYFNEELSEILSDPSDDTKGFFDPNTEENLTYLQLKERCIKDEETGLCLLPLKEKKKQVQTSQKNTLRKRRVVIVDPETNKEMSVQEGVDLQPSLIS | – | 1.59 | 0.254
